Tests used:
[1] = tested on: DRG neurons; DRGs and sciatic nerve of P1 mice; test: Immunostaining of KIF5s in DRG neurons, DRGs and sciatic nerve; parameters: species or system rat; mouse; conditions: microfluidic DRG neurons, DRGs and sciatic nerves in vivo
[2] = tested on: CB and distal axon compartments of DRG neurons; test: Western blot of KIF5 and KLC in cell body and distal axon lysates; assay type: cell-based, rat; conditions: Campenot CB vs distal axon lysates
[3] = tested on: bclw and β actin mRNA in DRG neurons; test: Quantitative RT-PCR of mRNA in cell bodies and distal axons; assay type: cell-based, rat; conditions: vs WT control; normalized to gapdh; 3 independent experiments
[4] = tested on: HA-SFPQ; test: Coimmunoprecipitation of HA-SFPQ with KLC1/KIF5A constructs in HEK 293T cells
[5] = tested on: mitochondria in axons of DRG neurons; test: Mitochondrial transport assay; assay type: cell-based, rat; conditions: vs control; ∼115 mitochondria, 10 axons, three experiments

B1: KIF5B: kinesin heavy chain KIF5B (protein, UniProt P33176 2-963, looked up)
Kinesin-1 heavy chain: ADLAECNIKVMCRFRPLNESEVNRGDKYIAKFQGEDTVVIASKPYAFDRVFQSSTSQEQVYNDCAKKIVKDVLEGYNGTIFAYGQTSSGKTHTMEGKLHDPEGMGIIPRIVQDIFNYIYSMDENLEFHIKVSYFEIYLDKIRDLLDVSKTNLSVHEDKNRVPYVKGCTERFVCSPDEVMDTIDEGKSNRHVAVTNMNEHSSRSHSIFLINVKQENTQTEQKLSGKLYLVDLAGSEKVSKTGAEGAVLDEAKNINKSLSALGNVISALAEGSTYVPYRDSKMTRILQDSLGGNCRTTIVICCSPSSYNESETKSTLLFGQRAKTIKNTVCVNVELTAEQWKKKYEKEKEKNKILRNTIQWLENELNRWRNGETVPIDEQFDKEKANLEAFTVDKDITLTNDKPATAIGVIGNFTDAERRKCEEEIAKLYKQLDDKDEEINQQSQLVEKLKTQMLDQEELLASTRRDQDNMQAELNRLQAENDASKEEVKEVLQALEELAVNYDQKSQEVEDKTKEYELLSDELNQKSATLASIDAELQKLKEMTNHQKKRAAEMMASLLKDLAEIGIAVGNNDVKQPEGTGMIDEEFTVARLYISKMKSEVKTMVKRCKQLESTQTESNKKMEENEKELAACQLRISQHEAKIKSLTEYLQNVEQKKRQLEESVDALSEELVQLRAQEKVHEMEKEHLNKVQTANEVKQAVEQQIQSHRETHQKQISSLRDEVEAKAKLITDLQDQNQKMMLEQERLRVEHEKLKATDQEKSRKLHELTVMQDRREQARQDLKGLEETVAKELQTLHNLRKLFVQDLATRVKKSAEIDSDDTGGSAAQKQKISFLENNLEQLTKVHKQLVRDNADLRCELPKLEKRLRATAERVKALESALKEAKENASRDRKRYQQEVDRIKEAVRSKNMARRGHSAQIAKPIRPGQHPAASPTHPSAIRGGGAFVQNSQPVAVRGGGGKQV
For B1, the “axonal localization of KIF5B by immunostaining (in words)” value [1] was “largely excluded from axons” and the “compartment localization (in words)” value [2] was “preferentially localizes in the CB compartment”.

B2: KIF5A^R280H: KIF5A mutant associated with CMT2 (protein)
chain: MAETNNECSIKVLCRFRPLNQAEILRGDKFIPIFQGDDSVIIGGKPYVFDRVFPPNTTQEQVYHACAMQIVKDVLAGYNGTIFAYGQTSSGKTHTMEGKLHDPQLMGIIPRIARDIFNHIYSMDENLEFHIKVSYFEIYLDKIRDLLDVTKTNLSVHEDKNRVPFVKGCTERFVSSPEEILDVIDEGKSNRHVAVTNMNEHSSRSHSIFLINIKQENVETEQKLSGKLYLVDLAGSEKVSKTGAEGAVLDEAKNINKSLSALGNVISALAEGTKSYVPYHDSKMTRILQDSLGGNCRTTMFICCSPSSYNDAETKSTLMFGQRAKTIKNTASVNLELTAEQWKKKYEKEKEKTKAQKETIAKLEAELSRWRNGENVPETERLAGEDSALGAELCEETPVNDNSSIVVRIAPEERQKYEEEIRRLYKQLDDKDDEINQQSQLIEKLKQQMLDQEELLVSTRGDNEKVQRELSHLQSENDAAKDEVKEVLQALEELAVNYDQKSQEVEEKSQQNQLLVDELSQKVATMLSLESELQRLQEVSGHQRKRIAEVLNGLMRDLSEFSVIVGNGEIKLPVEISGAIEEEFTVARLYISKIKSEVKSVVKRCRQLENLQVECHRKMEVTGRELSSCQLLISQHEAKIRSLTEYMQTVELKKRHLEESYDSLSDELARLQAHETVHEVALKDKEPDTQDAEEVKKALELQMENHREAHHRQLARLRDEINEKQKTIDELKDLNQKLQLELEKLQADYERLKNEENEKSAKLQELTFLYERHEQSKQDLKGLEETVARELQTLHNLRKLFVQDVTTRVKKSAEMEPEDSGGIHSQKQKISFLENNLEQLTKVHKQLVRDNADLRCELPKLEKRLRATAERVKALEGALKEAKEGAMKDKRRYQQEVDRIKEAVRYKSSGKRGHSAQIAKPVRPGHYPASSPTNPYGTRSPECISYTNNLFQNYQNLHLQAAPSSTSDMYFASSGATSVAPLASYQKANMDNGNATDINDNRSDLPCGYEAEDQAKLFPLHQETAAS
modifications: left off: FLAG, N-terminal, kept
With B2 the “axonal bclw mRNA level (in words)” value [3] was “significantly decreased”, the “axonal β actin mRNA level (in words)” value [3] was “not affected” and the “reduction in binding to SFPQ” value ([4]; KIF5A^R280H vs WT KIF5A, n = 7, P = 0.0019) was roughly 50%. For the same molecule, the “mitochondria transport (in words)” value [5] was “did not alter mitochondria transport”.

B3: KLC1 or its C-terminal mutant (ΔTail) (protein, UniProt P37285 1-560, looked up)
Kinesin light chain 1: MHDNMSTMVYMKEEKLEKLTQDEIISKTKQVIQGLEALKNEHNSILQSLLETLKCLKKDDESNLVEEKSSMIRKSLEMLELGLSEAQVMMALSNHLNAVESEKQKLRAQVRRLCQENQWLRDELANTQQKLQKSEQSVAQLEEEKKHLEFMNQLKKYDDDISPSEDKDSDSSKEPLDDLFPNDEDDPGQGIQQQHSSAAAAAQQGGYEIPARLRTLHNLVIQYASQGRYEVAVPLCKQALEDLEKTSGHDHPDVATMLNILALVYRDQNKYKDAANLLNDALAIREKTLGRDHPAVAATLNNLAVLYGKRGKYKEAEPLCKRALEIREKVLGKDHPDVAKQLNNLALLCQNQGKYEEVEYYYQRALEIYQTKLGPDDPNVAKTKNNLASCYLKQGKFKQAETLYKEILTRAHEREFGSVDDENKPIWMHAEEREECKGKQKDGSSFGEYGGWYKACKVDSPTVTTTLKNLGALYRRQGKFEAAETLEEAALRSRKQGLDNVHKQRVAEVLNDPENVEKRRSRESLNVDVVKYESGPDGGEEVSMSVEWNGMRKMKLGLVK
modifications: or C-terminal tail deletion mutant
With B3 the “reduction of binding to SFPQ” value ([4]; Myc-KLC1 without C-terminal region vs WT, n = 4, P = 0.0033) was roughly 50%.

Reference: PMC7721913 (The Journal of Cell Biology, 2020)
